In publication doi:10.1101/2021.11.05.467472 (bioRxiv, 2021):
Positions count from the first letter of the chain named. Names and notes keep the numbering of the source.

T1: CbbS (Rubisco small subunit) (H. neapolitanus, UniProt P45686 1-110)
T1 sequence: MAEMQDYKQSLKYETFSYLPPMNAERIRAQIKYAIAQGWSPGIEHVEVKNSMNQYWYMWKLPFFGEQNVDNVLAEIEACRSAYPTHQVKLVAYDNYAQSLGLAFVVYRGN

B1: CbbL (Rubisco large subunit) (natural protein)
chain: MAVKKYSAGVKEYRQTYWMPEYTPLDSDILACFKITPQPGVDREEAAAAVAAESSTGTWTTVWTDLLTDMDYYKGRAYRIEDVPGDDAAFYAFIAYPIDLFEEGSVVNVFTSLVGNVFGFKAVRGLRLEDVRFPLAYVKTCGGPPHGIQVERDKMNKYGRPLLGCTIKPKLGLSAKNYGRAVYECLRGGLDFTKDDENINSQPFMRWRDRFLFVQDATETAEAQTGERKGHYLNVTAPTPEEMYKRAEFAKEIGAPIIMHDYITGGFTANTGLAKWCQDNGVLLHIHRAMHAVIDRNPNHGIHFRVLTKILRLSGGDHLHTGTVVGKLEGDRASTLGWIDLLRESFIPEDRSRGIFFDQDWGSMPGVFAVASGGIHVWHMPALVNIFGDDSVLQFGGGTLGHPWGNAAGAAANRVALEACVEARNQGRDIEKEGKEILTAAAQHSPELKIAMETWKEIKFEFDTVDKLDTQNR
B2: NTD_(1-53)-sfGFP R23A (domain or fragment)
chain: MNTRNTRSKQRAPFGVSSSVKPALDLIEQAPNPAYDRHPACITLPERTCRHPL
B3: NTD_(1-53)-sfGFP-His (domain or fragment)
chain: B2 chain with A23R
B4: Rubisco CbbL D99A (complex)
chain 1: B1 chain with D99A
chain 2: T1 sequence
B5: Rubisco CbbL Y72A (complex)
chain 1: B1 chain with Y72A
chain 2: T1 sequence
B6: CsoSCA-MBP (enzyme)
chain: MNTRNTRSKQRAPFGVSSSVKPRLDLIEQAPNPAYDRHPACITLPERTCRHPLTDLEANEQLGRCEDSVKNRFDRVIPFLQVVAGIPLGLDYVTRVQELAQSSLGHTLPEELLKDNWISGHNLKGIFGYATAKALTAATEQFSRKIMSEKDDSASAIGFFLDCGFHAVDISPCADGRLKGLLPYILRLPLTAFTYRKAYAGSMFDIEDDLAQWEKNELRRYREGVPNTADQPTRYLKIAVYHFSTSDPTHSGCAAHGSNDRAALEAALTQLMKFREAVENAHCCGASIDILLIGVDTDTDAIRVHIPDSKGFLNPYRYVDNTVTYAQTLHLAPDEARVIIHEAILNANRSDGWAKGNGVASEGMRRFIGQLLINNLSQIDYVVNRHGGRYPPNDIGHAERYISVGDGFDEVQIRNLAYYAHLDTVEENAIDVDVGIKIFTKLNLSRGLPIPIAIHYRYDPNVPGSRERTVVKARRIYNAIKERFSSLDEQNLLQFRLSVQAQDIGSPIEEVASA

Key:
[1] = molecular target: T2, Rubisco-strep (H. neapolitanus CbbL8S8) (H. neapolitanus, UniProt O85040 1-473; P45686 1-110); test: cryo-EM structure
[2] = molecular target: T1, CbbS (Rubisco small subunit); test: cryo-EM structure
cryo-EM structure = molecular target: the molecule itself; test: cryo-EM structure
[3] = molecular target: T2, Rubisco-strep (H. neapolitanus CbbL8S8); test: BLI
[4] = molecular target: T2, Rubisco-strep (H. neapolitanus CbbL8S8); test: SEC
NTD_(1-53)-sfGFP-His = molecular target: B3; test: BLI
biotinylated Rubisco = biotinylated Rubisco (H. neapolitanus, UniProt O85040 1-473; P45686 1-110, biotin (subunit and site not stated)); test: BLI

**Q.** For MNTRNTRSKQRAPFGVSSSVKPRLDLIEQAPNPAYDRHPACITLPERTCR [NTD_(1-50) peptide (CsoSCA residue 1-50)], which “stoichiometry N” value [1] is on record?
**A.** The value was 8.

**Q.** Does MNTRNTRSKQRAPFGVSSSVKPRLDLIEQAPNPAYDRHPACITLPERTCR [NTD_(1-50) peptide (CsoSCA residue 1-50)] bind [2]?
**A.** Result: binds

**Q.** Does B1 bind (cryo-EM structure)?
**A.** Result: binds

**Q.** Does B2 bind [3]?
**A.** Result: binds

**Q.** Does B3 bind [4]?
**A.** Result: binds

**Q.** For B4, which “fold increase in KD against wild type” value (NTD_(1-53)-sfGFP-His) is on record?
**A.** The value was 10 fold.

**Q.** B5 was tested. Which “fold increase in KD against wild type” value (NTD_(1-53)-sfGFP-His) did it give?
**A.** The value was 10 fold.

**Q.** With B6 as the binder, how does the Kd (biotinylated Rubisco) read?
**A.** Its Kd is 1.2 ± 0.1 nM.
